Source: publication PMC8130932 (PLoS Pathogens, 2021)

How the values were obtained:
[1] = target: T1, SARS-CoV-2 spike glycoprotein S1+S2 extracellular domain (SARS-CoV-2, reference sequence, UniProt P0DTC2); assay: ELISA
T1 construct: also called full-length spike glycoprotein ectodomain

[2] = target: T2, SARS-CoV-2 spike glycoprotein, full-length, prefusion-stabilised, on MDCK-SIAT1 cells (SARS-CoV-2, reference sequence, UniProt P0DTC2, 986KV987 to 986PP987 | 682RRAR685 to 682GSAG685); assay: flow cytometry on cells; settings: one partner purified
T2 construct: also called MDCK-Spike

Binder	OD450 [1] [OD450]	binding result [2]
FD 7C (antibody, V domains shown, source: HEK293T, transfected; culture supernatant or purified) VH: QLQLQESGPGLVKPSETLSLTCTVSGGSISSYYWSWIRQPPGKGLEWIGYIYYSGSTNYNPSLKSRVTISVDTSKNQFSLKLSSVTAADTAVYYCARDYRFGELFGRFAWFDPWGQGTLVTVSS VL: not shown	1.9	binds
FD 5E (antibody, V domains shown, source: HEK293T, transfected; culture supernatant or purified) VH: EVQLVESGGVVVQPGGSLRLSCAASGFTFDDYAMHWVRQAPGKGLEWVSLISWDGGSTYYADSVKGRFTISRDNSKNSLYLQMNSLRAEDTALYYCAKDSVRFRYYYGMDVWGQGTTVTVSS VL: EIVLTQSPATLSLSPGERATLSCRASQSVSSYLAWYQQKPGQAPRLLIYDASNRATGIPARFSGSGSGTDFTLTISSLEPEDFAVYYCQQRSNWPLTFGPGTKVDIK	0.34	binds
FB 1E (antibody, V domains shown, source: HEK293T, transfected; culture supernatant or purified) VH: EVQLVESGAEVKKPGESLKISCQGSGYRFNSYWIAWVRQMPGKGLEWMGSIFPTDSDIRYNPSFQGQVTISADKSISIAYLQWSSLKASDTAIYYCARHWASMVRGVIRASHYYGMDVWGQGTTVTVSS VL: QSVLTQPPSASGSPGQSVTISCSGASSDIGDYNYVSWYQQLPGKAPKLLIYEVTKRPSGVPDRFSGSKSGNTASLTVSGLQADDEADYYCSSYAFGGSDIRVFGGGTKLAVL	1.4	binds
EW 9C (antibody, V domains shown, source: HEK293T, transfected; culture supernatant or purified) VH: EVQLVESGGGVVQPGASLRLSCVASGFTFNNFGFHWVRQAPGKGLEWLAVISYEGSKTYYAESLKGRFTISRDTSKNTVYLQMNSLRAEDTAVYYCARATSIFWFGEGRNWFDPWGQGTMVTVSS VL: EIVLTQSPGTVSLSAGERATLSCRASQNVGTDLAWYVQRPGQAPRLLIYDTSNKATGIPARFSGRGSGTDFTLTIDSLEPEDFAVYYCQQRSNWPLTFGGGTKVEIR	1.22	binds
FI 1C (antibody, V domains shown, source: HEK293T, transfected; culture supernatant or purified) VH: EVQLVESGGGLVKPGGSLRLSCAASGFTFSDYYMSWIRQAPGKGLEWVSYISSSGSTIYYADSVKGRFTISRDNAKNSLYLQMNSLRAEDTAVYYCARRSNRFLIAFDIWGQGTMVTVSS VL: QSALTQPASVSGSPGQTITISCTGTSSDVGGYNYVSWYQQHPGKAPKLMIYEVSNRPSGVSNRFSGSKSGNTASLTISGLQAEDEADYYCSSYTSSSTLVVFGGGTKLTVP	1.88	binds
FB 9D (antibody, V domains shown, source: HEK293T, transfected; culture supernatant or purified) VH: QVQLVESGAEVKKPGESLKISCQGSGYRFNSYWIAWVRQMPGKGLEWMGSIFPTDSDVRYNPSFQGQVTISADKSISFAYLQWSSLKASDTAIYYCARHWASMVRGVIRASHYYGMDVWGQGTTVTVSS VL: QPVLTQPPSASGSPGQSVTISCSGASSDIGKYNYVSWYQQLPGKAPKLLIYEVTKRPSGVPDRFSGSKSGNTASLTVSGLQADDEADYYCSSYAFGGSDTRVFGGGTKLTVL	1.43	binds
FN 2C (antibody, V domains shown, source: HEK293T, transfected; culture supernatant or purified) VH: EVQLLESGGGVVQPGRSLRLSCAASGFNFNNYGMHWVRQAPGKGLEWVATISYEGSKKFYVDSVKGRFTISKDNSKNTLYLQMNSLRVDDTAFYYCAKRREIFWLGEPPLSDAFDFWGQGTMVTVSS VL: QSVLTQPPSVSGAPGQRVTISCTGSGSNIGAGYDVHWYQFLPGTAPQLLIYGNNNRPSGVPDRFSGSKSGTSASLAITGLQAEDEADYYCQSYDSSLSGSVFGGGTKLTVL	1.77	binds
EY 6A (antibody, V domains shown, source: HEK293T, transfected; culture supernatant or purified) VH: EVQLVESGGGVVQPGRSLRLSCAASAFTFSSYDMHWVRQAPGKGLEWVAVISYDGSNKYYADSVKGRFTISRDNSKNTLYLQMNSLRAEDTAVYYCAKDGGKLWVYYFDYWGQGTLVTVSS VL: not shown	1.75	binds
FI 4A (antibody, V domains shown, source: HEK293T, transfected; culture supernatant or purified) VH: EVQLVESGGGLVKPGGSLRLSCAASGFTFSRFSMNWVRQAPGKGLEWVSSISSSGSYIYFADSVKGRFTISRDNAKNSLYLQMNSLRAEDTAIYYCATYLFGDSHTYWGQGTLVTVSS VL: QSVLTQPHSVSESPGKTVTISCTGSSGSIASNYVQWYQQRPGSAPTTVIYEDNQRPSGVPDRFSGSIDSSSNSASLTISGLKTEDEADYYCQSYDSSNLHWVFGGGTKLTVL	1.68	binds
EZ 7A (antibody, V domains shown, source: HEK293T, transfected; culture supernatant or purified) VH: EVQLVESGAEVKKPGESLKISCKGSGYSFTSYWIGWVRQMPGKGLEWMGIIYPGDSDTRYSPSFQGQVTISADKSISTAYLQWSSLKASDTAMYYCARGWVYRGFPYYGMDVWGQGTMVTVSS VL: QSALTQPRSVSGSPGQSVTISCTGTSSDVGGYNYVSWYQQHPGKAPKLMIYDVSKRPSGVPDRFSGSKSGNTASLTISGLQAEDEADYYCCSYAGSYTLVFGGGTKLTVL	1.66	binds
FM 7B (antibody, V domains shown, source: HEK293T, transfected; culture supernatant or purified) VH: EVQLVQSGAEVKKPGASVKVSCKASGYTFTSYAMHWVRQAPGQRLEWMGWINTGNGNTKYSQKFQGRVTITRDTSASTAYMELSSLRSEDTAVYYCARDPTYCSSTSCYPFSWFDPWGQGTLVTVSS VL: NFMLTQPPSVSVAPGQTARITCGGNNIGSKSVHWYQQKPGQAPVLVVYDDSDRPSGIPERFSGSNSGNTATLTISRVEAGDEADYYCQVWDSTGDHSWVFGGGTKLTVL	1.8	binds
